Laboratory results: patent US20230242902A1, “A HIGHLY ERROR-PRONE […] R[…] FOR TARGETED CONTINUOUS EVOLUTION IN VIVO” (The Regents of the University of California, priority 2017, published 2023)
In brackets after ≈: the same amount, converted by molar mass. Several values for one entry are separate records, joined by “and”; a condition that tells them apart may be missing. Equal values may be shown once.

Tests used:
[1] = Maximum soluble concentration in media; assay type: physicochemical; settings: yeast culture media, aqueous buffer
p2-encoded leu2* = assay: p2 leu2* fluctuation tests in GA-Y021 (p2 mutation rate reporter strain); assay type: cell-based, S. cerevisiae; settings: GA-Y021, noncognate polymerase in trans, mutual orthogonality experiment
Text: For fluctuation tests used to measure p2 mutation rates, leu2* served as a marker for detecting mutational events. leu2* is a disabled version of LEU2, where Q180 is replaced with a TAA stop codon. Q180 is a permissive site where mutation to any other codon other than TAG and TGA results in functional reversion to LEU2. These mutational events can be detected by plating scores of parallel cultures on medium lacking leucine and counting the number distribution of functional LEU2 mutants.
For TP-DNAP2 library screening, each library member was subjected to small-scale leu2* fluctuation tests with six replicates. 190 library members from each yeast library transformation were arrayed and inoculated into liquid SC medium lacking uracil and histidine, and passaged three times at 1:10,000 dilutions. mKate2 fluorescence was measured at every passage on a microplate reader (TECAN Infinite® 200 PRO, settings: λex=588, λem=633) to track p2 copy number stabilization. To perform fluctuation tests, each library member was diluted 1:10,000 into liquid SC medium buffered to pH 5.8 and lacking uracil, histidine, tryptophan, and dilutions were split into six 100 μL replicates. Cultures were grown for 48 hours at 30° C. to reach saturation. Saturated cultures were washed with 200 μL 0.9% NaCl to remove residual leucine and resuspended in 35 μL of 0.9% NaCl. 10 μL of this resuspension was spot plated onto solid SC medium buffered to pH 5.8 and lacking uracil, histidine, tryptophan and leucine. Spot plates were allowed to dry and incubated at 30° C. Colonies were counted after 5 days. Colony counts were used to calculate the expected number of LEU2 functional mutants (m), using the p0 method (Foster, 2006, Methods Enzymol, 409:195-213).
(§1) To precisely measure p1 and p2 per-base substitution mutation rates, several modifications were made to the small-scale protocol. First, 36 replicates were performed for reconfirmation of candidate TP-DNAP2 mutators, and 48 replicates for genomic and mutual orthogonality experiments. Titers were also determined for each strain after spot plating by pooling the residual volume from 4 replicates and plating dilutions on YPD. The expected number of LEU2 functional mutants (m) was determined by the Ma-Sandri-Sarkar maximum likelihood estimator (as calculated by the FALCOR tool and corrected for partial plating (Foster, 2006, Methods Enzymol, 409:195-213; Sarkar et al., 1992, Genetica, 85:173-179; Hall et al., 2009, Bioinformatics, 25:1564-1565). The mean mKate2 fluorescence was determined from 50,000 event counts on Attune™ NxT Flow Cytometer and converted to p2 copy number by using a calibration curve. To determine per-base substitution rates, the corrected m was normalized to the average cell titer, the p2 copy number, and the target size for functional leu2* reversion (2.33 bp). 95% confidence intervals were similarly scaled.
To identify error-prone TP-DNAP2s, a small library of TP-DNAP2s diversified at locations hypothesized to be responsible for DNAP fidelity was screened. […] Four distinct site-saturation mutagenesis libraries were generated, each diversifying S370, Y424, L474, or F882 in TP-DNAP2 encoded on pGA55-reTP-DNAP2. Due to unsuccessful attempts to generate a strain with a full deletion of p2-encoded TP-DNAP2 and simultaneous integration of mKate, URA3, and leu2*, each library was transformed into GA-Y021 for convenient screening. However, since GA-Y021 still encodes wt TP-DNAP2 on p2-delORF1-mUL*, p2 mutation rates measured in this format are the result of in tandem replication of p2 by wt TP-DNAP2 and each TP-DNAP2 variant encoded in trans. 6-fold coverage of each library was maintained by picking 190 yeast colonies and passaging under selection for URA3 to stabilize the copy number of p2-delORF1-mUL* in the presence of the newly introduced TP-DNAP2 variants. […]

p1-encoded leu2 (Q180*) = assay: qPCR measurement of p1-encoded leu2 (Q180*) copy number; assay type: cell-based, S. cerevisiae; settings: qPCR-determined p1 copy number, OR-Y24 strains
Experimental: A calibration curve was established to correlate p1 copy number, determined via quantitative PCR (qPCR), with fluorescence of p1-encoded mKate2 (Table 1). Five TP-DNAP1 variants representing a wide range of copy numbers were transformed into ORY24 and passaged until w.t. p1 was displaced. The five OR-Y24 strains were grown to saturation, diluted 1:10,000 to mimic p1 fluctuation tests, and grown in triplicate 100 μL cultures and duplicate 40 mL cultures. 100 μL saturated cultures were subject to fluorescence measurement of mKate2 (ex/em=561 nm/620 nm, bandwidth=15 nm) on a flow cytometer (Invitrogen Attune NxT). Whole-cell DNA extracts were prepared from 40 mL cultures and used as templates for qPCR measurement of p1-encoded leu2 (Q180*), as described previously (Ravikumar et al., 2014). p1-encoded LEU2 was PCR amplified with qPCR-Leu2F and qPCR Leu2R; and genomic LEU3 was PCR amplified with qPCR-Leu3F and qPCR-Leu3R using SyBR Green (Fisher Scientific) master mix.

p1-encoded leu2* = assay: p1 leu2* fluctuation tests in AR-Y304 (p1 mutation rate reporter strain, mutual orthogonality); assay type: cell-based, S. cerevisiae; settings: AR-Y304, polymerase in trans
Text: Strains for testing mutual orthogonality were generated by transforming a panel of CEN6/ARS4 vectors encoding TP-DNAP1 or TP-DNAP2 variants into two base strains, AR-Y304 and GA-Y021. AR-Y304 (Ravikumar et al., 2014, Nature Chemical Biology, 10:175-177) contains recombinant p1 encoding mKate2, URA3 and leu2* without disturbing the native TP-DNAP1 ORF. Similarly, GA-Y021 encodes recombinant p2 that replaces ORF1 with mKate2, URA3 and leu2* without disturbing the native TP-DNAP2 ORF.
as §1
To test whether the replication mechanisms of p1 and p2 are mutually orthogonal in vivo, p1 and p2 mutation rates were measured in the presence of a panel of TP-DNAP1 and TP-DNAP2 variants with varying mutation rates. Changes in p1 or p2 mutation rate induced by TP-DNAP variants would therefore signal a degree of cross-replication between TP-DNAP1/p1 and TP-DNAP2/p2, if any. A panel of six polymerases was introduced on CEN6/ARS4 vectors into two separate base strains, AR-Y304 (p1 mutation rate reporter strain) and GA-Y021 (p2 mutation rate reporter strain), encoding mKate2, URA3, and leu2* on either p1 or p2, respectively. Included in this panel were TP-DNAP1^WT and two error-prone TP-DNAP1 variants found in previous screens: TP-DNAP1^1777K, L900S and TP-DNAP1^L477V, L640Y, I777K, W814N. Also included were TP-DNAP2^WT and the error-prone TP-DNAP2^S370Q and TP-DNAP2^Y424Q variants found in this work. In AR-Y304 and GA-Y021, both p1 and p2 still encode their native wt TP-DNAP's. Any contribution to replication by a third TP-DNAP encoded in trans is monitored by detecting changes in linear plasmid mutation rate. Importantly, these experiments afford each DNAP an opportunity to replicate its native plasmid and lose its attached TP, becoming “spent” and perhaps more likely to replicate its noncognate linear plasmid through DNAP exchange (Klassen and Meinhardt, 2007, Linear Protein-Primed Replicating Plasmids in Eukaryotic Microbes, in Microbial Linear Plasmids, pp 1 87-226. Springer, Berlin, Heidelberg). The presence of TP-DNAP1^WT or TP-DNAP2^WT in trans had no effect on their noncognate linear plasmids' mutation rate. […] Likewise, p1 mutation rate was unaltered in the presence of mutagenic TP-DNAP2^S370Q and TP-DNAP2^Y424Q, which increased p2 mutation rate by 29- and 16-fold, respectively (FIG. 9). Thus, TP-DNAP1 replicates p1 with at least 870-fold specificity over p2, while TP-DNAP2 targets p2 with at least 29-fold specificity over p1. The level of mutual orthogonality measured here is limited by the error-rates of DNAPs used, especially that of TP-DNAP2 variants.

## CCc1nc(N)nc(N)c1-c1ccc(Cl)cc1 [pyrimethamine]
[1]
  solubility: 3000 µM (≈ 746 µg/mL)

B1: I777K, L900S: TP-DNAP1 variant, encoded by SEQ ID NO:7 (protein, listed as Kluyveromyces lactis)
chain: MDYKDKALNDLRNVYADFDSLPLDFRQILIKDRATLLQKEDVEKKILERQEDAKKYAEYLKQSEIPERISLPNIKRHKGVSISFEETSEDMVLEPRPFIFDGLNIRCFRRETIFSLKNKILNMVKESSSFKNVSRQSVSFMYFKIFNKGKVIASTKSVNIYEDKIDERLEDLCNNFDDVLKKIIDVTYGYESLFVSETYSYVIFYAKSIYFPQPRCVNNWGNNIPNILTFDSFKLFTANKNNVSCIKQCSRFLWQKDFNTLEEMIEYKNGNICIVTPQLHINDVRDIKSFNDIRLYSESPIKTFSVIDNTITYLFYFKEHLGVIFNITKSRHDRRVTKFSPLSKFSDVKNITVCFDIESYFDPEKESNQVNIPFICCASIIYNKVIGNIVDFEGRDCVAQMIEYVVDICGELNISSVELIAHNGGGYDFHYILSSMYNPAAIKNILIRNNSFISFNFAHDGVKFSVKDSYSFLLCSLANASKAFLNEETFKKTDFPHHDLKTADDLYKVYKEWSSVNTEINHVVEKEKLLITSEHIVNFTKNDKSKTLIEWSKDYCRNDVLVLSKVWLEFKNAVEDIFNCELVDQTMTLAGLSYKLFQANMPFDVELRHPNKEDYFNMREALIGGRCISVNGIYKDVLCLDVKSLYPASMAFYDQPYGSFKRVSSRPKDELGIYYVRVTPNRNNKSNFFPIRSHNKITYNNFEESTYIAWYTNVDIDIGLSEGHNIEYIPFDSYGNIGYSWSKKGKIFEKYIKDVLYKLKIKYEKQNNKVKRNVIKKIMNSLWGKFAQKWVNFEYFIKSEDDIDFESEEAYKIWDTDFMLIKKIKESTYSSKPIQNGVFTLSWARYHMKSIWDAGAKEGAECIYSDTDSIFVHKEHFKKNAKFMLNGLKVPIIGSEVGQSELECEFDKLLCAGKKQYMGFYTYFQDGKPCIKEKKRFKGIPSNYIIPELYAHLLSGADKEAKIQFLKFRREWGSVKGYIENKTVKAT
p2-encoded leu2*
  change in p2 mutation rate by TP-DNAP1: no statistically significant change
p1-encoded leu2 (Q180*)
  Average leu2 (Q180*) copy number per cell: 22.5 and 38.6
p1-encoded leu2*
  fold increase of p1 mutation rate: 380 fold
